Results as given in patent publication US20240075068A1 (GADETA B V, published 2024).
Each block holds one binder with its values, some of them ahead of it.

Legend:
[1] = target: Endothelial protein C receptor (EPCR) peptide on (human); assay: TEG library γ-random/δ-random, 16 h with Luc-Tom HT-29 (cells that express the antigen), E:T 1:3; CD69/CD107a sort, NGS read ratio; Fig. 9; full-length, on cells; settings: chains Vgamma:Vdelta
[2] = target: T1, endothelial protein C receptor (EPCR) on HT-29 cells (UniProt Q9UNN8 18-238, limits assumed); assay: flow cytometry on HT-29 cells (wild-type, EPCR-enhanced, EPCR KO), streptavidin-A647 detection
T1 construct: whole, on cells; The description says 'preferably human EPCR'; HT-29 is a human cell line; also called recognised target; target antigen
T1 sequence (looked up): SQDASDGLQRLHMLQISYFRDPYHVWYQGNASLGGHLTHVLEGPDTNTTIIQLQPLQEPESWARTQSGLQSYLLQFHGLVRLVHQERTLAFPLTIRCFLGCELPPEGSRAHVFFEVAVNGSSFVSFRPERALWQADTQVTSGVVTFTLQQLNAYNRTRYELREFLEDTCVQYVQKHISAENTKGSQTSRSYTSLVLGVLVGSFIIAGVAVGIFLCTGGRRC
Procedure: Target cells mock treated with PBS served as control binding (FIG. 15A). […] Mock treated and unstained target cells served as controls. Data was analysed with flowjo and shown as histograms.
(§1) Trypsinized HT-29 target cells seeded in 96-well round bottom-plates were incubated for 2 hours at 37° C. to recover cell surface expression molecules. […] Unbound sTCR/TCR-CD3 bispecific engager was washed. Bound sTCR or TCR-CD3 bispecific engager was stained respectively with streptavidin-labelled A647 (BioLegend, CA, USA) or anti-His-APC (BioLegend). Staining was determined with FACS flow cytometry was results were analyzed with Flowjo software.
The soluble γδTCRs were used to assess specific binding to HT-29 cells, HT-29 knocked out (KO) for the expressed target (EPCR) or HT-29 cells with ectopic target expression. Bound soluble γδTCRs were targeted with a secondary streptavidin A647-labelled antibody that could be detected with FACS flow cytometry.

[3] = target: T1, endothelial protein C receptor (EPCR) …; assay: flow cytometry on HT-29 cells (wild-type, EPCR ectopic, EPCR KO), anti-His-APC detection
Procedure: PBS-mock treated (secondary only) or unstained target cells served as controls. Data was analysed with flowjo and shown as histograms.
as §1
The γδTCR-CD3 bispecific engagers were used in binding experiments utilizing HT-29 cells, HT-29 with the target antigen (EPCR) knocked out (KO) or with ectopic expression of the target. Bound γδTCR-CD3 bispecific engagers were targeted with an anti-His-APC-labelled secondary antibody that could be detected with FACS flow cytometry.

- enrichment of CD69+/CD107a+ over CD69-/CD107a- reads [1]: > 170%
B1: E57 G7/D5 (protein)
chain 1: SSNLEGRTKSVIRQTGSSAEITCDLAEGSTGYIHWYLHQEGKAPQRLLYYDSYTSSVVLESGISPGKYDTYGSTRKNLRMILRNLIENDSGVYYCATWEAFYYKKLFGSGTTLVVT
chain 2: DQQVKQNSPSLSVQEGRISILNCDYTNSMFDYFLWYKKYPAEGPTFLISISSIKDKNEDGRFTVFLNKSAKHLSLHIVPSQPGDSAVYFCAASSPIKGYTGSDKLIFGKGTRVTVEP

- binding result [2]: no binding (tested: 10 µg)
B2: sE57 G2/D1 soluble γδTCR (affinity decreased variant, without cysteine) (TCR, V domains shown)
V domain 1: SSNLEGRTKSVIRQTGSSAEITCDLAEGSTGYIHWYLHQEGKAPQRLLYYDSYTSSVVLESGISPGKYDTYGSTRKNLRMILRNLIENDSGVYYCATWDGYKKLFGSGTTLVVTD
V domain 2: DQQVKQNSPSLSVQEGRISILNCDYTNSMFDYFLWYKKYPAEGPTFLISISSIKDKNEDGRFTVFLNKSAKHLSLHIVPSQPGDSAVYFCAASSPIRGYTSGSDKLIFGKGTRVTVEP
modifications: biotinylated via Avi-tag (BirA co-transfection in the presence of biotin)
notes: also called G2/D1 variant

- binding result [3]: no binding (tested: 5 µg)
B3: soluble γδTCR-CD3 bispecific engager comprising the G2/D1 variant regions (TCR, V domains shown)
V domain 1: B2 V domain 1
V domain 2: B2 V domain 2
notes: This is a TCR-scFv fusion; also called G2/D1 γδTCR-CD3 bispecific engager; G2D1 γδTCR-CD3 bispecific engager
